Numbering of substitutions follows the chain as printed. Numbers in names are those of the source.
Assays:
[1] = target: T1, cynomolgus monkey FcγRIIIaS extracellular domain, C-terminal His-tag (cynomolgus monkey, UniProt A3RFZ7 21-206 (rhesus entry)); experiment: SPR (BIACORE), antibody captured, FcγR analyte
T1 construct: also called cyno FcγRIIIaS; cynoFcγRIIIaS; not shown: His-tag added to C-terminus
Description: (§1) The kinetic analysis of interactions between these antibodies and FcγR was carried out using BIACORE® T200 or BIACORE® 4000 (GE Healthcare). HBS-EP+ (GE Healthcare) was used as the running buffer, and the measurement temperature was set to 25° C. A chip produced by immobilizing Protein A. Protein A/G or mouse anti-human IgG kappa light chain (BD Biosciences) onto a Series S Sensor Chip CM4 or CM5 (GE Healthcare) by the amine-coupling method was used. […] After the measurement, the antibody captured on the chip was washed off by allowing reaction with 10 mM glycine-HCl, pH1.5 and 25 mM NaOH so that the chip was regenerated and used repeatedly. The sensorgrams obtained as measurement results were analyzed by the 1:1 Langmuir binding model using the BIACORE® Evaluation Software to calculate the binding rate constant ka (L/mol/s) and dissociation rate constant kd (l/s), and the dissociation constant KD (mol/L) was calculated from these values. […] Regarding such interactions, KD values were calculated using the following 1:1 binding model described in BIACORE® T100 Software Handbook BR1006-48 Edition AE.

[2] = target: T2, human FcγRIIb extracellular domain, C-terminal His-tag (human, UniProt P31994 43-217); experiment: SPR (BIACORE), antibody captured, FcγR analyte
T2 construct: also called humanFcgRIIb; not shown: His-tag added to C-terminus
T2 sequence: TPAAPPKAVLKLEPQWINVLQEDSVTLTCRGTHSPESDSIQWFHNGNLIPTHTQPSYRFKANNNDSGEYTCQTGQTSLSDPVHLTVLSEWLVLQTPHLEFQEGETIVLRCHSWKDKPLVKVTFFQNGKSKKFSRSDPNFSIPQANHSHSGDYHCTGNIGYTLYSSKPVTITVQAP
Description: as §1

[3] = target: T3, cynomolgus monkey FcγRIIa3 extracellular domain, C-terminal His-tag (cynomolgus monkey); experiment: SPR (BIACORE), antibody captured, FcγR analyte
T3 construct: also called cyno FcγRIIa3; cynoFcgRIIa3; not shown: His-tag added to C-terminus
T3 chain: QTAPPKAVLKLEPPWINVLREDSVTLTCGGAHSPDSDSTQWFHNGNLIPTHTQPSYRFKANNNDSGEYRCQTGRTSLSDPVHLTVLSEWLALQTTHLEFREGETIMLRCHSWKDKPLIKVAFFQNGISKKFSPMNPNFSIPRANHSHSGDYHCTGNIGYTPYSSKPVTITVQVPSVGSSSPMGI
Description: as §1

[4] = target: T4, human FcγRIIaR extracellular domain, C-terminal His-tag (human, UniProt P12318 34-217); experiment: SPR (BIACORE), antibody captured, FcγR analyte
T4 construct: also called human FcγRIIa (type R); FcgRIIaR; not shown: His-tag added to C-terminus
T4 chain: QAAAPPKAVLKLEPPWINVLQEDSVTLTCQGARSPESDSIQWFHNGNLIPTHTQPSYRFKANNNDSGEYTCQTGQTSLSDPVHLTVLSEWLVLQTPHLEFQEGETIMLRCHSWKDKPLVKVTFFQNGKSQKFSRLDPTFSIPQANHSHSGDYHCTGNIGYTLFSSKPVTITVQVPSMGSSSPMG
Description: as §1

[5] = target: T5, cynomolgus monkey FcγRIIa2 extracellular domain, C-terminal His-tag (cynomolgus monkey); experiment: SPR (BIACORE), antibody captured, FcγR analyte
T5 construct: also called cyno FcγRIIa2; cynoFcgRIIa2; not shown: His-tag added to C-terminus
T5 chain: T3 chain with I127K, K130N, P133H, R142Q
Description: as §1

[6] = target: T6, cynomolgus monkey FcγRIIa1 extracellular domain, C-terminal His-tag (cynomolgus monkey); experiment: SPR (BIACORE), antibody captured, FcγR analyte
T6 construct: also called cyno FcγRIIa1; cynoFcgRIIa1; not shown: His-tag added to C-terminus
T6 chain: T3 chain with T95P, A121T, S128A, P133H, N135D
Description: as §1

[7] = target: T7, human FcγRIIIaV extracellular domain, C-terminal His-tag (human, UniProt P08637 17-208); experiment: SPR (BIACORE), antibody captured, FcγR analyte
T7 construct: also called FcgRIIIaV; not shown: His-tag added to C-terminus
Description: as §1

[8] = target: T8, human FcγRIIaH extracellular domain, C-terminal His-tag (human, UniProt P12318 34-217); experiment: SPR (BIACORE), antibody captured, FcγR analyte
T8 construct: also called human FcγRIIa (type H); FcgRIIaH; not shown: His-tag added to C-terminus
T8 sequence: T4 chain with R134H
Description: as §1

[9] = target: T9, cynomolgus monkey FcγRIIb extracellular domain, C-terminal His-tag (cynomolgus monkey); experiment: SPR (BIACORE), antibody captured, FcγR analyte
T9 construct: also called cyno FcγRIIb; cynoFcγRIIb; not shown: His-tag added to C-terminus
T9 chain: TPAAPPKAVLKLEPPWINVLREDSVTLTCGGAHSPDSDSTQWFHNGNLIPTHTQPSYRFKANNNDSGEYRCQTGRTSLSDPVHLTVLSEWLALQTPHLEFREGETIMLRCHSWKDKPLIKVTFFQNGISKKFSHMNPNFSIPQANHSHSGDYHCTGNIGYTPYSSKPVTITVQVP
Description: as §1

[10] = target: T1, cynomolgus monkey FcγRIIIaS …; experiment: SPR (BIACORE); KD of parent SG1 / KD of variant;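 note: relative to parent M103205H795-SG1 carrying the SG1 human heavy chain constant region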
Description: as §1

[11] = target: T2, human FcγRIIb extracellular domain, …; experiment: SPR (BIACORE); KD of parent SG1 / KD of variant;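 note: relative to parent M103205H795-SG1 carrying the SG1 human heavy chain constant region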
Description: as §1

[12] = target: T3, cynomolgus monkey FcγRIIa3 …; experiment: SPR (BIACORE); KD of parent SG1 / KD of variant;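 note: relative to parent M103205H795-SG1 carrying the SG1 human heavy chain constant region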
Description: as §1

[13] = target: T4, human FcγRIIaR extracellular domain, …; experiment: SPR (BIACORE); KD of parent SG1 / KD of variant;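 note: relative to parent M103205H795-SG1 carrying the SG1 human heavy chain constant region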
Description: as §1

[14] = target: T5, cynomolgus monkey FcγRIIa2 …; experiment: SPR (BIACORE); KD of parent SG1 / KD of variant
Description: as §1

[15] = target: T6, cynomolgus monkey FcγRIIa1 …; experiment: SPR (BIACORE); KD of parent SG1 / KD of variant
Description: as §1

[16] = target: T7, human FcγRIIIaV extracellular domain, …; experiment: SPR (BIACORE); KD of parent SG1 / KD of variant
Description: as §1

[17] = target: T8, human FcγRIIaH extracellular domain, …; experiment: SPR (BIACORE); KD of parent SG1 / KD of variant
Description: as §1

[18] = target: T9, cynomolgus monkey FcγRIIb extracellular …; experiment: SPR (BIACORE); KD of parent SG1 / KD of variant
Description: as §1

T1 sequence (A3RFZ7 21-206): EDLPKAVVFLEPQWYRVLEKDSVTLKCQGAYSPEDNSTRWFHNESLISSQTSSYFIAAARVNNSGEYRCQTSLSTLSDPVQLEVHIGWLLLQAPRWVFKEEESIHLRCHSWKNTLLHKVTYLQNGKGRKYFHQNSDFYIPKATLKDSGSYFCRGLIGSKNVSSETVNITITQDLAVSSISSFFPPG
T7 sequence (P08637 17-208 F176V): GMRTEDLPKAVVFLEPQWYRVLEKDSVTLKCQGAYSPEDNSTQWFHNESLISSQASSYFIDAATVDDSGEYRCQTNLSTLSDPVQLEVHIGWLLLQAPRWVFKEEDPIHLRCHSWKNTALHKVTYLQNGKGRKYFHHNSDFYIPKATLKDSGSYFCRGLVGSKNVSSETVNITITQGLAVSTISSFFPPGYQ

B1: M103205H795-SG1029 / M103202L889-SK1 (antibody, human IgG1, kappa)
heavy: QVTLKESGPVLVKPTETLTLTCTVSGIDLSHDDISWVRQAPGKGLEWVGIISYAGSTYYASWAKGRLTISKDTSKNQVVLTMTNMDPVDTATYYCARGVPAYSHGGDLWGQGTLVTVSSASTKGPSVFPLAPSSKSTSGGTAALGCLVKDYFPEPVTVSWNSGALTSGVHTFPAVLQSSGLYSLSSVVTVPSSSLGTQTYICNVNHKPSNTKVDKKVEPKSCDKTHTCPPCPAPELLNGPSVFLFPPKPKDTLMISRTPEVTCVVVDVSDEDPEVKFNWYVDGVEVHNAKTKPREELYNSTYRVVSVLTVLHRDWLNGKEYKCKVSNKALPKPIEKTISKAKGQPREPQVYTLPPSREEMTKNQVSLTCLVKGFYPSDIAVEWESNGQPENNYKTTPPVLDSDGSFFLYSKLTVKKSRWQQGNVFSCSVMHEALHAHYTQKSLSLSP
light: DIVMTQSPATLSLSPGERATLSCTSSQSVYHANWLSWFQQKPGQPPKLLIYWASTLAYGVPSRFSGSGSGTDFTLTISSLQPEDAATYYCAGGYGGGRYAFGQGTKVEIKRTVAAPSVFIFPPSDEQLKSGTASVVCLLNNFYPREAKVQWKVDNALQSGNSQESVTEQDSKDSTYSLSSTLTLSKADYEKHKVYACEVTHQGLSSPVTKSFNRGEC
notes: CH with G236N/H268D/Q295L/Q311R/A330K/D413K/N434A against SG1 (EU numbering); also called MS1032LO06-SG1029
B1 gave a Kd [1] of 5.3 µM, a Kd [2] of 0.9 µM and a Kd [3] of 3.1 µM. For the same binder, the Kd [4] was 1.3 µM, the Kd [5] was 1.5 µM and the Kd [6] was 1.4 µM. The Kd [7] was 20 µM, the Kd [8] was 0.79 µM and the Kd [9] was 0.4 µM. For the same binder, the “KD fold (SG1 = 1)” value [10] was 0.05 fold, the “KD fold (SG1 = 1)” value [11] was 5.3 fold and the “KD fold (SG1 = 1)” value [12] was 2.8 fold. The “KD fold (SG1 = 1)” value [13] was 0.8 fold, the “KD fold (SG1 = 1)” value [14] was 3.1 fold and the “KD fold (SG1 = 1)” value [15] was 3.5 fold. The “KD fold (SG1 = 1)” value [16] was 0.03 fold, the “KD fold (SG1 = 1)” value [17] was 1.1 fold and the “KD fold (SG1 = 1)” value [18] was 4.9 fold.

B2: M103205H795-SG1031 / M103202L889-SK1 (antibody, human IgG1, kappa)
heavy: B1 heavy with L297Q
light: B1 light
notes: CH with G236N/H268D/Q311R/A330K/D413K/N434A against SG1 (EU numbering); also called MS1032LO06-SG1031
B2 gave a Kd [1] of 4.4 µM, a Kd [2] of 1.2 µM and a Kd [3] of 2.8 µM. For the same binder, the Kd [4] was 0.8 µM, the Kd [5] was 1.5 µM and the Kd [6] was 1.8 µM. The Kd [7] was 15 µM, the Kd [8] was 1.8 µM and the Kd [9] was 0.5 µM. For the same binder, the “KD fold (SG1 = 1)” value [10] was 0.06 fold, the “KD fold (SG1 = 1)” value [11] was 3.8 fold and the “KD fold (SG1 = 1)” value [12] was 3.1 fold. For the same binder, the “KD fold (SG1 = 1)” value [13] was 1.3 fold, the “KD fold (SG1 = 1)” value [14] was 3.1 fold and the “KD fold (SG1 = 1)” value [15] was 2.6 fold. For the same binder, the “KD fold (SG1 = 1)” value [16] was 0.04 fold, the “KD fold (SG1 = 1)” value [17] was 0.7 fold and the “KD fold (SG1 = 1)” value [18] was 3.9 fold.

B3: M103205H795-SG1033 / M103202L889-SK1 (antibody, human IgG1, kappa)
heavy: B1 heavy with L297Q, R313Q, K415D
light: B1 light
notes: CH with G236N/H268D/A330K/N434A against SG1 (EU numbering); also called MS1032LO06-SG1033
B3 was tested, and the Kd [1] was 4.4 µM, the Kd [2] was 1.2 µM and the Kd [3] was 3 µM. It also gave a Kd [4] of 1 µM, a Kd [5] of 1.5 µM and a Kd [6] of 1.8 µM. It also gave a Kd [7] of 12 µM, a Kd [8] of 1.2 µM and a Kd [9] of 0.5 µM. For the same binder, the “KD fold (SG1 = 1)” value [10] was 0.06 fold, the “KD fold (SG1 = 1)” value [11] was 3.9 fold and the “KD fold (SG1 = 1)” value [12] was 2.9 fold. For the same binder, the “KD fold (SG1 = 1)” value [13] was 1 fold, the “KD fold (SG1 = 1)” value [14] was 3 fold and the “KD fold (SG1 = 1)” value [15] was 2.6 fold. For the same binder, the “KD fold (SG1 = 1)” value [16] was 0.05 fold, the “KD fold (SG1 = 1)” value [17] was 0.7 fold and the “KD fold (SG1 = 1)” value [18] was 3.9 fold.

B4: M103205H795-SG1034 / M103202L889-SK1 (antibody, human IgG1, kappa)
heavy: B1 heavy with N238T, L297Q
light: B1 light
notes: CH with G236T/H268D/Q311R/A330K/D413K/N434A against SG1 (EU numbering); also called MS1032LO06-SG1034
B4 showed a Kd [1] of 2.2 µM, a Kd [2] of 2.6 µM and a Kd [3] of 4.2 µM. It also gave a Kd [4] of 0.25 µM, a Kd [5] of 2.7 µM and a Kd [6] of 8.1 µM. It also gave a Kd [7] of 7.1 µM, a Kd [8] of 0.81 µM and a Kd [9] of 0.88 µM. For the same binder, the “KD fold (SG1 = 1)” value [10] was 0.15 fold, the “KD fold (SG1 = 1)” value [11] was 1.8 fold and the “KD fold (SG1 = 1)” value [12] was 2 fold. The “KD fold (SG1 = 1)” value [13] was 4.1 fold, the “KD fold (SG1 = 1)” value [14] was 1.7 fold and the “KD fold (SG1 = 1)” value [15] was 1.5 fold. For the same binder, the “KD fold (SG1 = 1)” value [16] was 0.09 fold, the “KD fold (SG1 = 1)” value [17] was 2.9 fold and the “KD fold (SG1 = 1)” value [18] was 2.2 fold.

B5: MS_M103240H795-SG1/M103202L1045-SK1 (antibody, human IgG1, kappa)
heavy: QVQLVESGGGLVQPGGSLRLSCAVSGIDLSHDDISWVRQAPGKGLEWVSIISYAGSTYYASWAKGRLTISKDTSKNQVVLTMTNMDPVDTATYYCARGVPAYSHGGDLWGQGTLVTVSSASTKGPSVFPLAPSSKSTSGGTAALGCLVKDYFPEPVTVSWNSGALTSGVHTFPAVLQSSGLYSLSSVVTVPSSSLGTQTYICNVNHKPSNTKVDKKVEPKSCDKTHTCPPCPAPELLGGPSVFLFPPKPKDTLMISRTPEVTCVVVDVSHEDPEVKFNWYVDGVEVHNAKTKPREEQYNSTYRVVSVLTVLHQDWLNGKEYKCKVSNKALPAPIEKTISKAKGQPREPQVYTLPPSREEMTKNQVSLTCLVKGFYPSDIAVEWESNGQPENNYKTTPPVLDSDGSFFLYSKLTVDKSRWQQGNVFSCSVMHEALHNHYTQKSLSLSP
light: B1 light with S25T, A32E
notes: Parent of the MS1032LO19 Fc variants; also called MS1032LO19-SG1; MS103240H795-SG1
B5 gave a Kd [1] of 0.26 µM, a Kd [2] of 3.8 µM and a Kd [3] of 6.6 µM. It also gave a Kd [4] of 0.96 µM, a Kd [5] of 4.1 µM and a Kd [6] of 8.8 µM. It also gave a Kd [7] of 0.58 µM, a Kd [8] of 0.97 µM and a Kd [9] of 1.7 µM. For the same binder, the “KD fold (SG1 = 1)” value [10] was 1 fold, the “KD fold (SG1 = 1)” value [11] was 1 fold and the “KD fold (SG1 = 1)” value [12] was 1 fold. For the same binder, the “KD fold (SG1 = 1)” value [13] was 1 fold, the “KD fold (SG1 = 1)” value [14] was 1 fold and the “KD fold (SG1 = 1)” value [15] was 1 fold. The “KD fold (SG1 = 1)” value [16] was 1 fold, the “KD fold (SG1 = 1)” value [17] was 1 fold and the “KD fold (SG1 = 1)” value [18] was 1 fold.

— patent publication US20200317768A1 (published 2020)
